# B1: G(GAGVPG)70G(GVLPGVG)28G(ESIINFEKLT)2GG (protein)
# chain: GGAGVPGGAGVPGGAGVPGGAGVPGGAGVPGGAGVPGGAGVPGGAGVPGGAGVPGGAGVPGGAGVPGGAGVPGGAGVPGGAGVPGGAGVPGGAGVPGGAGVPGGAGVPGGAGVPGGAGVPGGAGVPGGAGVPGGAGVPGGAGVPGGAGVPGGAGVPGGAGVPGGAGVPGGAGVPGGAGVPGGAGVPGGAGVPGGAGVPGGAGVPGGAGVPGGAGVPGGAGVPGGAGVPGGAGVPGGAGVPGGAGVPGGAGVPGGAGVPGGAGVPGGAGVPGGAGVPGGAGVPGGAGVPGGAGVPGGAGVPGGAGVPGGAGVPGGAGVPGGAGVPGGAGVPGGAGVPGGAGVPGGAGVPGGAGVPGGAGVPGGAGVPGGAGVPGGAGVPGGAGVPGGAGVPGGAGVPGGAGVPGGAGVPGGAGVPGGAGVPGGESIINFEKLTESIINFEKLTGG
# B2: RED-NP: reductive-environment dependable NP, disulfide stabilized fusion iTEPB70-iTEPA28-(G8C)4-pOVA (SEQ ID NO: 61) (protein)
# chain: GGAGVPGGAGVPGGAGVPGGAGVPGGAGVPGGAGVPGGAGVPGGAGVPGGAGVPGGAGVPGGAGVPGGAGVPGGAGVPGGAGVPGGAGVPGGAGVPGGAGVPGGAGVPGGAGVPGGAGVPGGAGVPGGAGVPGGAGVPGGAGVPGGAGVPGGAGVPGGAGVPGGAGVPGGAGVPGGAGVPGGAGVPGGAGVPGGAGVPGGAGVPGGAGVPGGAGVPGGAGVPGGAGVPGGAGVPGGAGVPGGAGVPGGAGVPGGAGVPGGAGVPGGAGVPGGAGVPGGAGVPGGAGVPGGAGVPGGAGVPGGAGVPGGAGVPGGAGVPGGAGVPGGAGVPGGAGVPGGAGVPGGAGVPGGAGVPGGAGVPGGAGVPGGAGVPGGAGVPGGAGVPGGAGVPGGAGVPGGAGVPGGAGVPGGAGVPGGAGVPGGGVLPGVGGVLPGVGGVLPGVGGVLPGVGGVLPGVGGVLPGVGGVLPGVGGVLPGVGGVLPGVGGVLPGVGGVLPGVGGVLPGVGGVLPGVGGVLPGVGGVLPGVGGVLPGVGGVLPGVGGVLPGVGGVLPGVGGVLPGVGGVLPGVGGVLPGVGGVLPGVGGVLPGVGGVLPGVGGVLPGVGGVLPGVGGVLPGVGGCGCGCGCGESIINFEKLTESIINFEKLTGG
# Tests used:
# [1] = Thermally-induced reversible phase transition (turbidity OD350 vs temperature); format: physicochemical
# Description: Characterization of thermally-induced, reversible, inverse phase transition of iTEPs and the iTEPB-iTEPA-pOVA fusion. The phase transitions of iTEP or iTEP fusions were characterized by turbidity changes of sample solutions as a function of temperature. Specifically, the optical density at 350 nm (OD350) of a sample solution was monitored using an UV-visible spectrophotometer equipped with a multi-cell thermoelectric temperature controller (Cary 300, Varian Instruments, Walnut Creek, CA) while the solution was heated from 20° C. to 80° C. and then cooled to 20° C. at a rate of 1° C./min. The maximum first derivative of the turbidity curve of a sample was identified. The transition temperature (Tt) of the sample is the temperature that corresponds to the maximum derivative.
# [2] = Quantification of free sulfhydryl groups (Ellman's method); format: physicochemical
# Method: Quantification of free sulfhydryl groups of RED-NP after reducing treatments. Twenty mg of RED-NP were dissolved in 2 mL of H2O and treated with 1 mM of GSH for 16 h. The solution was then dialyzed (membrane cutoff MW: 3,500 Dalton) in deionized water at 4° C. for 24 h. Then the sample was concentrated to 0.5 mL using Amicon centrifugal filter devices (Millipore, USA). Numbers of free sulfhydryl groups of RED-NP were determined by Ellman's method. Briefly, 250 μL of sample and 50 μL of Ellman's reagent (Thermo Scientific, USA) were added to 2.5 mL of reaction buffer (0.1 M sodium phosphate, pH 8.0, 1 mM EDTA). After 15 min of incubation at room temperature, the OD412 was measured. To generate a standard curve of free sulfhydryl groups, OD412 of serial dilutions of cysteine hydrochloride monohydrate was measured. The serial OD412 values were plotted against concentrations of cysteine hydrochloride monohydrate to generate a standard curve. Concentrations of free sulfhydryl groups in the RED-NP samples were determined from the standard curve and used to calculate numbers of free sulfhydryl groups per iTEP-vaccine fusion molecules.
Molecule,temperature of sharp increase of turbidity (formation of aggregates) [1],Tt (cooling) ([1]; 25 μM in H2O),Tt (heating) ([1]; 25 μM in H2O),"free sulfhydryl groups, on average ([2]; after the treatment of 1 mM of GSH)","free sulfhydryl groups, on average ([2]; before GSH treatment)"
B1,70 °C,73.70 ± 0.23 °C,75.40 ± 0.14 °C,–,–
B2,–,–,–,two,zero
